Patent US6420522 (VERTEX PHARMACEUTICALS, dated 2002)
Read-outs that look alike come from different tables or passages of the source. Starred links: 1 amine or outer side, 2 acyl side, 3 side chain; linkers in the order of their positions; H or OH if unused. Non-standard residues stand in square brackets, D forms with d. No end group written: not given here. *: point of attachment. Asp‑al = Asp with the carboxyl reduced to aldehyde (3-amino-4-oxobutanoic acid), O=C[C@H](CC(=O)[*:3])N[*:1]; benzoxazol‑2‑yl ketone = Asp carboxyl replaced by 2-benzoxazolyl ketone, c1ccc2oc(*)nc2c1; Pro(4R-allyloxy) = 4(R)-allyloxyproline, C=CCO[C@@H]1C[C@@H](C(=O)[*:2])N([*:1])C1; X3 = (2,6-dichlorophenylmethyloxy)methyl ketone, Clc1cccc(Cl)c1COC*; X1 = 7‑methoxybenzoxazol‑2‑yl ketone, COc1cccc2nc(*)oc12; X2 = 4‑methoxybenzoxazol‑2‑yl ketone, COc1cccc2oc(*)nc12; X4 = (2-chlorobenzyloxy)methyl ketone, Clc1ccccc1COC*; Pro(4-benzyloxy) = 4-benzyloxyproline; Pro(4-phenoxy) = 4-phenoxyproline; Hyp = O=C(O)[C@@H]1C[C@@H](O)CN1; Cbz = O=C(OCc1ccccc1)*

T1: interleukin-1β converting enzyme (ICE) in human peripheral blood mononuclear cells (human, UniProt P29466 1-404, limits assumed)
T1 sequence (looked up): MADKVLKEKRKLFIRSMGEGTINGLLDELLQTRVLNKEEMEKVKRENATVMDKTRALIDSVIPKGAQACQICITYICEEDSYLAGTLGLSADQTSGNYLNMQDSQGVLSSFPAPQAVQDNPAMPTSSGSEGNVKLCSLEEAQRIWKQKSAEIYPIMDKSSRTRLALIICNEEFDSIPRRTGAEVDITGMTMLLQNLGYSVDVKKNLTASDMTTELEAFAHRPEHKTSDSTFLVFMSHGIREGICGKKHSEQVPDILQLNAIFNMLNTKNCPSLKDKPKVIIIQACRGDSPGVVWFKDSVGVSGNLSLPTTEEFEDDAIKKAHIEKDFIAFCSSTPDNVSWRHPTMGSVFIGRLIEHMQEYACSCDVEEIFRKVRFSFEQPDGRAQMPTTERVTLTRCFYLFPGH

T2: interleukin-1β converting enzyme (ICE), as used in the enzyme assays (UniProt P29466 120-297; P29466 317-404, limits assumed)
T2 construct: also called IL-1β Converting Enzyme
T2 sequence (looked up) 1: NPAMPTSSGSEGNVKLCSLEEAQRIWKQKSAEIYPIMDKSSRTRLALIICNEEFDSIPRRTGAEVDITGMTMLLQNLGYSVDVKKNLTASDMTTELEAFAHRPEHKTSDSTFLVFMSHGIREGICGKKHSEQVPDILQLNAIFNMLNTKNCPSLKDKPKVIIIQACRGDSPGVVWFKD
T2 sequence (looked up) 2: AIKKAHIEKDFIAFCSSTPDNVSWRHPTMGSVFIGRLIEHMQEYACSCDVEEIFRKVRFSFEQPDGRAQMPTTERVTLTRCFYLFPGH

B1: N-Acetyl-(S)-tyrosinyl-(S)-valinyl-(S)-alaninyl-3(S)-amino-5-(2-chlorobenzyloxy)-4-oxo-pentanoic acid (peptide)
peptide: Ac-YVAD-X4
SMILES: CC(=O)N[C@@H](Cc1ccc(O)cc1)C(=O)N[C@H](C(=O)N[C@@H](C)C(=O)N[C@@H](CC(=O)O)C(=O)COCc1ccccc1Cl)C(C)C
notes: also called 89
B2: (3S) N-(N-Acetyl-(S)-tyrosinyl-(S)-valinyl-(S)-alaninyl)-3-amino-4-(2-(7-methoxybenzoxazolyl))-4-oxobutanoate (peptide)
peptide: Ac-YVAD-X1
SMILES: COc1cccc2nc(C(=O)[C@H](CC(=O)O)NC(=O)[C@H](C)NC(=O)[C@@H](NC(=O)[C@H](Cc3ccc(O)cc3)NC(C)=O)C(C)C)oc12
notes: also called 69a
B3: (3S) t-Butyl N-(N-acetyl-(S)-tyrosinyl-(S)-valinyl-(S)-alaninyl)-3-amino-4-(2-(4-methoxybenzoxazolyl))-4-oxobutanoate (peptide)
peptide: Ac-YVAD-X2
SMILES: COc1cccc2oc(C(=O)[C@H](CC(=O)O)NC(=O)[C@H](C)NC(=O)[C@@H](NC(=O)[C@H](Cc3ccc(O)cc3)NC(C)=O)C(C)C)nc12
notes: The printed name begins with 't-Butyl', but the compound was made by the method for the acid 69a and its printed formula C31H37N5O10 is that of the free acid; also called 69b
B4: (3S) N-(N-Benzyloxycarbonyl-(S)-valinyl-(S)-alaninyl)-3-amino-4-(2-benzoxazolyl)-4-oxobutanoate (peptide)
peptide: Cbz-Val-Ala-Asp-{benzoxazol‑2‑yl ketone}
SMILES: CC(C)[C@H](NC(=O)OCc1ccccc1)C(=O)N[C@@H](C)C(=O)N[C@@H](CC(=O)O)C(=O)c1nc2ccccc2o1

Key:
[1] = molecular target: interleukin-1β converting enzyme (ICE), as used in the enzyme assays (UniProt P29466); assay: ICE enzyme inhibition, UV-visible substrate Suc-YVAD-pNA
[2] = molecular target: interleukin-1β converting enzyme (ICE), as used in the enzyme assays (UniProt P29466); assay: ICE enzyme inhibition, fluorescent substrate Ac-YVAD-AMC
[3] = molecular target: T1, interleukin-1β converting enzyme (ICE) …; assay: cell-based or functional assay
[4] = molecular target: T2, interleukin-1β converting enzyme (ICE), …; assay: ICE enzyme inhibition, fluorescent substrate Ac-YVAD-AMC
Experimental: This assay is run essentially according to Thornberry et al. (Nature 356: 768–774 (1992)), using substrate 17 referenced in that article. […] The following components are mixed:
Buffer and ICE are added to the wells. The components are left to incubate at 37° C for 15 minutes in a temperature-controlled wellplate. […] A linear fit of the data for each well is performed and a rate is determined in fluorescence units per second.

[5] = molecular target: T2, interleukin-1β converting enzyme (ICE), …; assay: ICE enzyme inhibition, UV-visible substrate Suc-YVAD-pNA
Experimental: Synthesis of analogous substrates is described by L. A. Reiter (Int. J. Peptide Protein Res. 43, 87–96 (1994)). […] Buffer, ICE and DMSO (if inhibitor is present) are added to the wells in the order listed. The components are left to incubate at room temperature for 15 minutes starting at the time that all components are present in all wells. The microtiter plate reader is set to incubate at 37° C. After the 15 minute incubation, substrate is added directly to the wells and the reaction is monitored by following the release of the chromophore (pNA) at 405–603 nm at 37° C. for 20 minutes. A linear fit of the data is performed and the rate is calculated in mOD/min. DMSO is only present during experiments involving inhibitors, buffer is used to make up the volume to 100 µl in the other experiments.

[6] = molecular target: T1, interleukin-1β converting enzyme (ICE) …; assay: cell-based or functional assay; remark: listed apart in the source
[7] = molecular target: T1, interleukin-1β converting enzyme (ICE) …; assay: cell-based or functional assay; remark: listed apart in the source

Row | Molecule | Ki [1] | Ki [5] | Cell IC50 (µM): inhibitor concentration at which 50% of mature IL-1β is detected in the supernatant [6] | further results
1 | N-[2-(N-Acetyl-tyrosinyl-valinyl)-(S)-1,2,3,4-tetrahydroisoquinoline-3-carbonyl]-3-amino-oxobutanoic acid (peptide) | 14 nM |  |  | 
2 | N-(N-Acetyl-tyrosinyl-valinyl-pipecolyl)-3-amino-4-oxobutanoic acid (peptide) | 23 nM |  |  | Ki [2]: 4.7 nM
3 | Ac-YV[Pro(4-phenoxy)][Asp‑al] (not fully specified (C-terminus)) [N-(N-Acetyl-tyrosinyl-valinyl-(4-phenoxyprolinyl))-3-amino-4-oxobutanoic acid] |  | 7.2 nM |  | Cell IC50 (µM): inhibitor concentration at which 50% of mature IL-1β is detected in the supernatant [3]: 2.6 µM; Ki [4]: 5.2 nM
4 | B1 |  | 18 nM |  | 
5 | B2 |  | 11 nM | 0.735 µM | 
6 | Ac-YVAD-X3 (also: Asp-derived residue (R,S), also called 84b) |  | 19 nM | 0.5 µM | 
7 | B3 |  | 50 nM | 0.745 µM | 
8 | Cbz-Val-Ala-Asp-X3 (also: Asp-derived residue (R,S)) | 100 nM |  | 3.3 µM | 
9 | Ac-Val-Pro-Asp-X1 (not fully specified (residues 2, 3)) | 175 nM |  |  | Cell IC50 (µM): inhibitor concentration at which 50% of mature IL-1β is detected in the supernatant [7]: 4 µM
10 | Ac-YV[Pro(4-benzyloxy)][Asp‑al] (not fully specified (C-terminus)) [N-[N-Acetyl-tyrosinyl-valinyl-(4-benzyloxy)prolinyl]-3-amino-4-oxobutanoic acid] |  | 10 nM |  | Ki [4]: 2 nM
11 | Ac-YV[Hyp][Asp‑al] (not fully specified (C-terminus)) [N-[N-Acetyl-tyrosinyl-valinyl-(4-hydroxyprolinyl)]-3-amino-4-oxobutanoic acid] |  | 12 nM |  | Ki [4]: 3.9 nM
12 | B4 | 850 nM |  | 4.1 µM | 
13 | Ac-YV[Pro(4R-allyloxy)][Asp‑al] (not fully specified (C-terminus), also called 85) [N-(N-Acetyl-tyrosinyl-valinyl-(4(R)-allyloxy prolinyl))-3(S)-amino-4-oxobutanoic acid] |  | 3.5 nM |  | Cell IC50 (µM): inhibitor concentration at which 50% of mature IL-1β is detected in the supernatant [7]: 9.8 µM
